The results in this text go back to publication PMC4432389, “Cytosolic Hsp70 and co-chaperones constitute a novel system for tRNA import into the nucleus” (eLife, 2015).

One assay has as its target T1, Ssa2p (S. cerevisiae, UniProt P10592 1-639).
T1 construct: Ssa2p, major cytosolic Hsp70 of S. cerevisiae, full length (residues 1-639 by the domain constructs); Expressed from a pCold2 vector with a C-terminal His6 tag; also called Ssa2p-His6; Ssa proteins; source: E. coli BL21(DE3) co-expressing trigger factor, purified (Ni-NTA agarose)
Put plainly: pull-down; 200 pmol GST or GST-nucleoporin fusion and 40 pmol Ssa1p or Ssa2p incubated with Glutathione Sepharose in Buffer 88 (20 mM HEPES-KOH pH 6.8, 2 mM Mg(OAc)2, 150 mM KOAc) with 0.10% wt/vol Tween-20, 4°C, 2 hr; eluted with 10 mM reduced glutathione; Ssa proteins detected by Western blotting with anti-Ssa protein antibodies. As to conditions: both partners purified. For orientation: A western blot detects proteins with antibodies after separation by electrophoresis.

The next assay has as its target T2, Ssa1p (S. cerevisiae, UniProt P10591 1-642).
T2 construct: Ssa1p, cytosolic Hsp70 of S. cerevisiae, full length (residues 1-642 by the domain constructs); Expressed from a pCold2 vector with a C-terminal His6 tag; also called Ssa1p-His6; Ssa proteins; source: E. coli BL21(DE3) co-expressing trigger factor, purified (Ni-NTA agarose)
The description is as above. As to conditions: both partners purified.

T1 sequence (P10592 whole entry, the tested form may be a part): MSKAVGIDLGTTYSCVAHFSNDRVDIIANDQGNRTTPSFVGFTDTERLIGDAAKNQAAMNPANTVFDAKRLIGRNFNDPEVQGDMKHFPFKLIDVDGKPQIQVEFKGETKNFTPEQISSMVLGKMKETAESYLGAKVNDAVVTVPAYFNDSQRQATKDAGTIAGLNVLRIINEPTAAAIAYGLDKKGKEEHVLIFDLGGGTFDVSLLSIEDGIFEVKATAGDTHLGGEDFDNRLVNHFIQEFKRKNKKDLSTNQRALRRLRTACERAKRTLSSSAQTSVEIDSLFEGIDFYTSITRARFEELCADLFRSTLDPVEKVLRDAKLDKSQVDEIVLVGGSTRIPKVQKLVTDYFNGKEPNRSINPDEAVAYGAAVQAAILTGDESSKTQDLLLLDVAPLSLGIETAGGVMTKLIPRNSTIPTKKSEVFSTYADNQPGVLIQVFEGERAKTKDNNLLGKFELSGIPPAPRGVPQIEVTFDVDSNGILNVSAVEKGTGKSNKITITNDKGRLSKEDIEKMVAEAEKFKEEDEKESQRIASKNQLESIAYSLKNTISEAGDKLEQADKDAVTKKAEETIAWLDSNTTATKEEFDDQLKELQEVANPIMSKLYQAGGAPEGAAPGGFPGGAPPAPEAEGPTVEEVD
T2 sequence (P10591 whole entry, the tested form may be a part): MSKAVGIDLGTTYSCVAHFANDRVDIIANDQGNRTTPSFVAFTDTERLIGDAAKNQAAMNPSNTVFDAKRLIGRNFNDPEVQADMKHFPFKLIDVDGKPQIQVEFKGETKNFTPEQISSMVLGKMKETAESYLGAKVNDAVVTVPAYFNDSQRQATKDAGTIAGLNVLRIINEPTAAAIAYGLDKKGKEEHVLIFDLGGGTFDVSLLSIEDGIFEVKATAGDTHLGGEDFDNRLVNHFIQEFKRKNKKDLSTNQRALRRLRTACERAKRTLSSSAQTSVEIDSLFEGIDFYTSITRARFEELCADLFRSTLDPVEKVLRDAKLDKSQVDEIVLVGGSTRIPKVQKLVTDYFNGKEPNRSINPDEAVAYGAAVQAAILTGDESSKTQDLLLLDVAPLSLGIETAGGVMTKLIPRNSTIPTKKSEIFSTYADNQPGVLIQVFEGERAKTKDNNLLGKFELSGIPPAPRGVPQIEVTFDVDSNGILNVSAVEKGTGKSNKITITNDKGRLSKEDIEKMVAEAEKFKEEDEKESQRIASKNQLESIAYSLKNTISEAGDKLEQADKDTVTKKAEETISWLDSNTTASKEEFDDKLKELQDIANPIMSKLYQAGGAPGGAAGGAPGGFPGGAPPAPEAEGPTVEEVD

B1: GST-Nup116(165–715)p (domain or fragment, S. cerevisiae, UniProt Q02630 165-715, looked up)
chain: RKFGTSQNGTGTTFNNPQGTTNTGFGIMGNNNSTTSATTGGLFGQKPATGMFGTGTGSGGGFGSGATNSTGLFGSSTNLSGNSAFGANKPATSGGLFGNTTNNPTNGTNNTGLFGQQNSNTNGGLFGQQQNSFGANNVSNGGAFGQVNRGAFPQQQTQQGSGGIFGQSNANANGGAFGQQQGTGALFGAKPASGGLFGQSAGSKAFGMNTNPTGTTGGLFGQTNQQQSGGGLFGQQQNSNAGGLFGQNNQSQNQSGLFGQQNSSNAFGQPQQQGGLFGSKPAGGLFGQQQGASTFASGNAQNNSIFGQNNQQQQSTGGLFGQQNNQSQSQPGGLFGQTNQNNNQPFGQNGLQQPQQNNSLFGAKPTGFGNTSLFSNSTTNQSNGISGNNLQQQSGGLFQNKQQPASGGLFGSKPSNTVGGGLFGNNQVANQNNPASTSGGLFGSKPATGSLFGGTNSTAPNASSGGIFGSNNASNTAATTNSTGLFGNKPVGAGASTSAGGLFGNNNNSSLNNSNGSTGLFGSNNTSQSTNAGGLFQNNTSTNTSGGGLFS
notes: Cloned into pGEX-4T-2; also called Nup116p; source: DH5α, purified (Glutathione Sepharose, NAP-10 desalting)
For B1, the binding result with Ssa2p and in the assay with Ssa1p was “binds” each time.
